Results: patent publication US20040092712A1 (published 2004)

Key:
[1] = target: F1024-1-3 antibody; assay: competition ELISA: 4-fold diluted serum mixed with 1 µg/mL peroxidase-labeled F1024-1-3 on immobilised human sCD14(1-356)
[2] = target: T1, sCD14(1-307)S286C (human, UniProt P08571 20-326); assay: BIACORE 3000, injected over immobilised sCD14(1-356), no LPS
T1 construct: CD14 mutant polypeptide expressed in COS-1 cells; also called CD14(s286C)
T1 sequence: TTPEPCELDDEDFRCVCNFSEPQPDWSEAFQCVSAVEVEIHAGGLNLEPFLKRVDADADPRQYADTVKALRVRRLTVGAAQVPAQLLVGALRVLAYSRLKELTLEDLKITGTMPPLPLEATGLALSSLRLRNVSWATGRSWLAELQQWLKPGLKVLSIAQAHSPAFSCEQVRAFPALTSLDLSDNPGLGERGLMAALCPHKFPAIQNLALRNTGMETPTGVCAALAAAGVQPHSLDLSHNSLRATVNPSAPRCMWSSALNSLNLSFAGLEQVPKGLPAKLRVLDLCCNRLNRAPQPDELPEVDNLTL

B1: rabbit soluble type CD14 (rabbit serum) (receptor, rabbit (New Zealand white), UniProt Q28680 18-342, looked up)
chain: STDTPEPCELDDDDIRCVCNFSDPQPDWSSALQCMPAVQVEMWGGGHSLEQFLRQADLYTDQRRYADVVKALRVRRLTVGAVQVPAPLLLGVLRVLGYSRLKELALEDIEVTGTAPPPPPLEATGPALSTLSLRNVSWPKGGAWLSELQQWLKPGLQVLNIAQAHTLAFSCEQVRTFSALTTLDLSENPGLGERGLVAALCPHKFPALQDLALRNAGMKTLQGVCAALAEAGVQPHHLDLSHNSLRADTQRCIWPSALNSLNLSFTGLQQVPKGLPAKLNVLDLSCNKLNRAPQPGELPKVVNLSLDGNPFLVPGASKLQEDLTN
B1 gave an inhibition ratio of binding of F1024-1-3 antibody to human CD14 [1] of 52%.

B2: rhesus monkey soluble type CD14 (serum) (receptor)
chain: TTPEPCELDDEDFRCVCNFSEPHPDWSEAFQCVSAVEVEIRVGGLSLEPFLTRVDPDADPRQYADTIKALRVRRLTVGAAQVPAQLLVGALRVLAYSRLQELTLEDLEITGTMPPLPLEATGLALSSLRLHNVSWATGRSWLAELQQWLKPGLKVLSIAQAHSPAFSCEQVRAFPALTSLDLSDNPGLGERGLIAALCPHKFPALQNLALRNTGMETPTGVCAALAAAGVQPHSLDLSHNSLRATANPSAPRCMWSSALNSLNLSFAGLEQVPKGLPAKLRVLDLSCNRLNRRPRPDELPQVDNLALDGNPFLVPGTALPQEGSMN
B2 showed an inhibition ratio of binding of F1024-1-3 antibody to human CD14 [1] of 44%.

B3: crab-eating macaque soluble type CD14 (serum) (receptor)
chain: B2 chain
Work on B3 yielded an inhibition ratio of binding of F1024-1-3 antibody to human CD14 [1] of 57%.

B4: sCD14(1-356) (receptor)
chain: TTPEPCELDDEDFRCVCNFSEPQPDWSEAFQCVSAVEVEIHAGGLNLEPFLKRVDADADPRQYADTVKALRVRRLTVGAAQVPAQLLVGALRVLAYSRLKELTLEDLKITGTMPPLPLEATGLALSSLRLRNVSWATGRSWLAELQQWLKPGLKVLSIAQAHSPAFSCEQVRAFPALTSLDLSDNPGLGERGLMAALCPHKFPAIQNLALRNTGMETPTGVCAALAAAGVQPHSLDLSHNSLRATVNPSAPRCMWSSALNSLNLSFAGLEQVPKGLPAKLRVLDLSCNRLNRAPQPDELPEVDNLTLDGNPFLVPGTALPHEGSMQSVVVPACARSTLSVGVSGTLVLLQGARGFA
notes: Expressed from pM1656 in COS-1 cells; GPI-anchoring sites Asn326 and Gly328 replaced by Gln and Val to give a soluble protein; In the BIACORE experiments it stood as a complex with LPS or FITC-LPS; also called full-length type human soluble CD14; recombinant soluble type CD14
B4: no binding (tested: 10 µg/mL) [2].

B5: human serum-derived soluble type CD14 (receptor)
chain: TTPEPCELDDEDFRCVCNFSEPQPDWSEAFQCVSAVEVEIHAGGLNLEPFLKRVDADADPRQYADTVKALRVRRLTVGAAQVPAQLLVGALRVLAYSRLKELTLEDLKITGTMPPLPLEATGLALSSLRLRNVSWATGRSWLAELQQWLKPGLKVLSIAQAHSPAFSCEQVRAFPALTSLDLSDNPGLGERGLMAALCPHKFPAIQNLALRNTGMETPTGVCAALAAAGVQPHSLDLSHNSLRATVNPSAPRCMWSSALNSLNLSFAGLEQVPKGLPAKLRVLDLSCNRLNRAPQPDELPEVDNLTLDGNPFLVPGTALPHEGSMNSGVVPACARSTLSVGVSGTLVL
B5 was tested, and the inhibition ratio of binding of F1024-1-3 antibody to human CD14 [1] was 83%.
